Source: article PMC6698744
Read-outs that look alike come from different tables or passages of the source.

Experiments:
A3Gctd-2K3A-E259A [1] = target: T1, A3Gctd-2K3A-E259A (UniProt Q9HC16 191-384, L234K;C243A;E259A;F310K;C321A;C356A); assay: MST
A3Gctd-2K3A-E259A [2] = target: T1, A3Gctd-2K3A-E259A; assay: MST; remark: listed apart in the source

T1 sequence (Q9HC16 191-384 L234K/C243A/E259A/F310K/C321A/C356A): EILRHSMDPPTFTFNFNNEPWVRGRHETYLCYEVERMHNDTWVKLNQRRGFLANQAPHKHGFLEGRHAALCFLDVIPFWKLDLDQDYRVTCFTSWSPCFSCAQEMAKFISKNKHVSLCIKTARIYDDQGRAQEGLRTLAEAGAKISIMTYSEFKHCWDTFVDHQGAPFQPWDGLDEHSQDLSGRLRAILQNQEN

Binder | Kd (A3Gctd-2K3A-E259A [1]) [µM] | Kd (A3Gctd-2K3A-E259A [2]) [µM]
AATCCCAAA (ssDNA, ribocytidine at position 6, rest DNA) [5'-AATCCrCAAA] | 6650 ± 860 | 
AATCCUAAA (ssDNA, deoxyuridine at position 6) [5'-AATCCdUAAA (intermediate product)] | 2170 ± 250 | 
AATCCCAAA (ssDNA) [5'-AATCCCAAA (substrate)] | 1570 ± 160 | 
ATTCCCAATT (XNA, 2'-deoxy-2'-fluororibocytidine at position 6, rest DNA) [5'-ATTCC(2'-F-RNA)CAATT] | 3760 ± 300 | 
ATTCCCAATT (XNA, 2'-deoxy-2'-fluoroarabinocytidine at position 6, rest DNA) [5'-ATTCC(2'-F-ANA)CAATT] |  | 1740 ± 490
